Test results taken from US20150037339A1 (Regeneron, published 2015).

T1: Activin A (human, UniProt P08476 311-426)
T1 sequence: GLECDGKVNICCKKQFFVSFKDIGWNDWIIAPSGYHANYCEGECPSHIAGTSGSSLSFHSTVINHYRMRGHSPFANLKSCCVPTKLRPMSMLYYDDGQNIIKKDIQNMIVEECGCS

T2: Activin A (human, UniProt P08476 311-426)
T2 construct: Homodimer of two βA subunits; bought from R&D Systems (#338-AC); also called inhibin-βA dimer; human Activin A
T2 sequence: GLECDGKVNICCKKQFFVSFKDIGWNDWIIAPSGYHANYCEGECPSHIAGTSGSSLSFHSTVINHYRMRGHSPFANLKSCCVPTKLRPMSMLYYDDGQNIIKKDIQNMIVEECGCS

T3: Activin AC (human, UniProt P55103 237-352)
T3 construct: Heterodimer of one betaA and one betaC subunit; bought (R&D Systems #4879-AC)
T3 sequence 1: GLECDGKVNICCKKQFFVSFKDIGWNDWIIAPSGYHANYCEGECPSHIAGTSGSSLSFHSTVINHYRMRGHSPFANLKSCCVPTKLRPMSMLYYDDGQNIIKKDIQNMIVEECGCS
T3 sequence 2: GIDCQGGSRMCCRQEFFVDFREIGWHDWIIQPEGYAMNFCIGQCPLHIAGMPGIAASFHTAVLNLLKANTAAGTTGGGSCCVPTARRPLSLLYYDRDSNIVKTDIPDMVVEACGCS

T4: Activin AB (human, UniProt P08476 311-426; P09529 293-407)
T4 construct: Heterodimer of one betaA and one betaB subunit; bought (R&D Systems #1006-AB-005 / #1066-AB)
T4 chain 1: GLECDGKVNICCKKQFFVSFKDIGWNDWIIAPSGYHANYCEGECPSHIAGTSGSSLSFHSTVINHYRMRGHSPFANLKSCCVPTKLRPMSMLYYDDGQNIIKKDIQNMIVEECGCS
T4 chain 2: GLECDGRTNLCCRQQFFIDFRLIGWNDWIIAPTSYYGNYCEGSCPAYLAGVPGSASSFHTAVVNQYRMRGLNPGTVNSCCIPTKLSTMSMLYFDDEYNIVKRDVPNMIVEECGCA


Tests used:
Activin A [1] = biological target: T1, Activin A; assay: cell-based or functional assay
Activin A [2] = biological target: T2, Activin A; assay: SPR, captured mAb, 37C
Method: (§1) Antibody-antigen association was monitored for 240 seconds while dissociation in buffer was monitored for 600 seconds. Kinetic association and dissociation rate constants were determined by processing and fitting the data using Scrubber software version 2.0c. Binding equilibrium dissociation constants (KD) and dissociative half-lives (t_{1/2}) were then calculated from the kinetic rate constants as: KD (M)=kd/kₐ and t_{1/2} (min)=[ln 2/(60*kd)]. (NB=no binding observed under the conditions used; NT=not tested).

Activin A [3] = biological target: T2, Activin A; assay: SPR, captured mAb, 25C
Method: as §1

Activin AC [4] = biological target: T3, Activin AC; assay: SPR (Biacore), mAb captured on anti-Fc, Activin AC injected, 37 C
Method: as §1

Activin AB [5] = biological target: T4, Activin AB; assay: SPR (Biacore), mAb captured on anti-Fc, Activin AB injected, 25 C
Method: as §1

Activin AB [6] = biological target: T4, Activin AB; assay: SPR (Biacore), mAb captured on anti-Fc, Activin AB injected, 37 C
Method: as §1

Activin AC [7] = biological target: T3, Activin AC; assay: SPR (Biacore), mAb captured on anti-Fc, Activin AC injected, 25 C
Method: as §1

Row | Binder | IC50 [M], inhibition of 100 pM Activin A in A204/CAGAx12-Luc Smad2/3-luciferase bioassay (Activin A [1]) | Activin A-20 nM (RU) (Activin A [2]) | Kd (Activin A [2]) | koff (Activin A [2]) | kon (Activin A [2]) | t1/2 (Activin A [2]) | Activin A-20 nM (RU) (Activin A [3]) | Kd (Activin A [3]) | koff (Activin A [3]) | kon (Activin A [3]) | t1/2 (Activin A [3]) | also measured
1 | H2aM10965N (antibody, mouse IgG2a, V domains shown) VH: RVQLVQSGSEVKKPGASVKVSCRASGYIFTSYDINWVRQATGQGLEWMGWMNPNNGNTAYTQKFQGRVTMTRNTSISTAYMELSSLRSEDTAVYYCARKGLLWFGKLLGYGMDVWGQGTTVTVSS VL: not shown [H2aM10965N, listing 1 of 2 here] | 3.5e-09 M | – | – | – | – | – | – | – | – | – | – | –
2 | H2aM10965N (antibody, mouse IgG2a, V domains shown) VH: RVQLVQSGSEVKKPGASVKVSCRASGYIFTSYDINWVRQATGQGLEWMGWMNPNNGNTAYTQKFQGRVTMTRNTSISTAYMELSSLRSEDTAVYYCARKGLLWFGKLLGYGMDVWGQGTTVTVSS VL: not shown [H2aM10965N, listing 2 of 2 here] | – | 80 RU | 1.77 nM | 0.00415 s⁻¹ | 2.35e+06 M⁻¹ s⁻¹ | 3 min | 76 RU | 0.745 nM | 0.0011 s⁻¹ | 1.48e+06 M⁻¹ s⁻¹ | 10 min | –
3 | H4H10426P (antibody, human IgG4, V domains shown) VH: EVQLVESGGNLVQSGRSLRLSCTASGFAFDDFAMHWVRQVPGKGLEWVSGISWNSDTIGYADSVKGRFTISRDNAQNSLFLQMDSLRAEDTALYYCVKDMVRGLIGYYYYGMDVWGQGTTVTVSS VL: EIVLTQSPAILSLSPGERAILSCRASQSIYTYLSWYQQTPGRAPRLLIYETSSRATGIPARFIGSGSGTDFTLTISSLEPEDFAFYYCQHRSDWPPTFGQGTKLEIK [H4H10426P, listing 1 of 2 here] | 2.3e-10 M | – | – | – | – | – | – | – | – | – | – | –
4 | H4H10426P (antibody, human IgG4, V domains shown) VH: EVQLVESGGNLVQSGRSLRLSCTASGFAFDDFAMHWVRQVPGKGLEWVSGISWNSDTIGYADSVKGRFTISRDNAQNSLFLQMDSLRAEDTALYYCVKDMVRGLIGYYYYGMDVWGQGTTVTVSS VL: EIVLTQSPAILSLSPGERAILSCRASQSIYTYLSWYQQTPGRAPRLLIYETSSRATGIPARFIGSGSGTDFTLTISSLEPEDFAFYYCQHRSDWPPTFGQGTKLEIK [H4H10426P, listing 2 of 2 here] | – | 21 RU | 0.123 nM | 0.00198 s⁻¹ | 1.61e+07 M⁻¹ s⁻¹ | 6 min | 23 RU | 0.0595 nM | 0.0007 s⁻¹ | 1.18e+07 M⁻¹ s⁻¹ | 16 min | –
5 | H4H10445P2 (antibody, human IgG4, V domains shown) VH: QVQLQESGPGLVKPSETLSLICSVSGGSFSSHFWSWIRQPPGKGLEWIGYVLYSGGTNYNPSLKSRVTISVDTSKNQFFLKLSSVTAADTADYYCARAISGITFGGIIVPGSFDIWGQGTMVTVSS VL: not shown | 5.3e-11 M | – | – | – | – | – | – | – | – | – | – | –
6 | H4H10447P2 (antibody, human IgG4, V domains shown) VH: QVQLQESGPGLVKPSETLSLTCSVSGGSFSSHFWSWIRQPPGKGLEWIGYIHYSGGTNYNPSLKSRVTISVDTSKNQFSLKLTSVTAADTADYYCARAISGITFGGMIVPGSFDVWGEGTMVTVSS VL: not shown | 7.8e-11 M | – | – | – | – | – | – | – | – | – | – | –
7 | H4H10433P2 (antibody, human IgG4, V domains shown) VH: EVQLVESGGGLVQAGRSLRLSCEASGFTFDDYGMHWVRQGPGKGLEWVSGISWNSGNIDYADSVKGRFTISRDNAKTSLYLQMNSLKTDDTALYFCAKDAVGFNWNYFLFDYWGQGTLVTVSS VL: not shown | – | 12 RU | 0.0537 nM | 0.00107 s⁻¹ | 2e+07 M⁻¹ s⁻¹ | 11 min | 16 RU | 0.0406 nM | 0.000577 s⁻¹ | 1.42e+07 M⁻¹ s⁻¹ | 20 min | –
8 | H4H10438P2 (antibody, human IgG4, V domains shown) VH: EVQLVESGGGLVQPGRSLRLSCAASGFTFDDNAMHWVRQPPGKGLEWVSGISWNSGSIGYADSVKGRFTISRDNAKNSLYLQMNSLRAEDTALYYCAKDINDILTGYPLFDYWGQGTLVTVSS VL: not shown [H4H10438P2, listing 1 of 2 here] | 2.6e-10 M | – | – | – | – | – | – | – | – | – | – | –
9 | H4H10438P2 (antibody, human IgG4, V domains shown) VH: EVQLVESGGGLVQPGRSLRLSCAASGFTFDDNAMHWVRQPPGKGLEWVSGISWNSGSIGYADSVKGRFTISRDNAKNSLYLQMNSLRAEDTALYYCAKDINDILTGYPLFDYWGQGTLVTVSS VL: not shown [H4H10438P2, listing 2 of 2 here] | – | 18 RU | 0.127 nM | 0.00238 s⁻¹ | 1.87e+07 M⁻¹ s⁻¹ | 5 min | 25 RU | 0.0492 nM | 0.000588 s⁻¹ | 1.2e+07 M⁻¹ s⁻¹ | 20 min | –
10 | H4H10423P (antibody, human IgG4, V domains shown) VH: QVQLQQSGPGLLKPSQTLSLTCAISGDSVSSNSAAWSWIRQSPSRGLEWLGRTYYRANWFNDYALSVKSRITINPVTSTNHFSLQLHSVTPEDTAVYYCAREGALGYYFDSWGQGTLVTVSS VL: not shown | 2e-10 M | – | – | – | – | – | – | – | – | – | – | 50 nM Ag Bound (RU) (Activin AC [4]): 0 RU; 50 nM Ag Bound (RU) (Activin AB [5]): 14.7 RU; Kd (Activin AB [5]): 33.1 nM; koff (Activin AB [5]): 0.0203 s⁻¹; kon (Activin AB [5]): 613000 M⁻¹ s⁻¹; t1/2 (Activin AB [5]): 0.6 min; 50 nM Ag Bound (RU) (Activin AB [6]): 21.7 RU; Kd (Activin AB [6]): 24.2 nM; koff (Activin AB [6]): 0.0213 s⁻¹; kon (Activin AB [6]): 880000 M⁻¹ s⁻¹; t1/2 (Activin AB [6]): 0.5 min; 50 nM Ag Bound (RU) (Activin AC [7]): -0.8 RU
11 | H4H10424P (antibody, human IgG4, V domains shown) VH: QVQLVESGGGVVQPGRSLRLSCAASGFTFSSYGMHWVRQAPGKGLEWVAVIWYDGSNKYNADSVKGRFTISRDNSKNTVYLQMNSLRAEDTAVYYCARARNYDILTGYYNLGMDVWGQGTTVTVSS VL: DIQMTQSPSSLSASVGDRVTITCRASQGIRNDLGWYQQKPGKAPKRLIYAASSLQSGVPSRFSGSGSGTEFTLTISSLQPEDFATYYCLQHNSYPYTFGQGTKLEIK [H4H10424P, listing 1 of 2 here] | 7.6e-10 M | – | – | – | – | – | – | – | – | – | – | –
12 | H4H10424P (antibody, human IgG4, V domains shown) VH: QVQLVESGGGVVQPGRSLRLSCAASGFTFSSYGMHWVRQAPGKGLEWVAVIWYDGSNKYNADSVKGRFTISRDNSKNTVYLQMNSLRAEDTAVYYCARARNYDILTGYYNLGMDVWGQGTTVTVSS VL: DIQMTQSPSSLSASVGDRVTITCRASQGIRNDLGWYQQKPGKAPKRLIYAASSLQSGVPSRFSGSGSGTEFTLTISSLQPEDFATYYCLQHNSYPYTFGQGTKLEIK [H4H10424P, listing 2 of 2 here] | – | 58 RU | 0.794 nM | 0.00364 s⁻¹ | 4.59e+06 M⁻¹ s⁻¹ | 3 min | 82 RU | 0.229 nM | 0.000719 s⁻¹ | 3.14e+06 M⁻¹ s⁻¹ | 16 min | –
13 | H4H10452P2 (antibody, human IgG4, V domains shown) VH: QVQLQESGPGLVKPSETLSLTCTVSGGSFSSHFWNWIRQSPGRGLEWIGYIYYSGGTNYNPSFKSRVTMSVDTSKNQFSLKLSSVTAADTAVFYCARARSGITFGGVLVPGSFDIWGQGTMVTVSS VL: not shown | 5.8e-11 M | – | – | – | – | – | – | – | – | – | – | –
14 | H4H10448P2 (antibody, human IgG4, V domains shown) VH: QVQLQESGPGLVKPSETLSLTCTVSGGTFSSHFWSWIRQPPGKGLEWIGYIFYTGGTNHNPSLKSRVTISIDTSKNQFSLKLTSVTAADTAVYYCARARSGITFGGVIVPGSFDIWGQGTMVTVSS VL: not shown | 4.6e-11 M | – | – | – | – | – | – | – | – | – | – | –
15 | H4H10437P2 (antibody, human IgG4, V domains shown) VH: EVQLVESGGGLVQPGRSLRLSCAASGFTFDDYAMHWVRQAPGKGLEWVSGISWNSGSIGYADSVKGRFTISRDNAKNSLYLQMNSLRAEDTALYYCAKDIMGNWDYFYGMDVWGQGTTVTVSS VL: not shown [H4H10437P2, listing 1 of 2 here] | 2.9e-10 M | – | – | – | – | – | – | – | – | – | – | –
16 | H4H10437P2 (antibody, human IgG4, V domains shown) VH: EVQLVESGGGLVQPGRSLRLSCAASGFTFDDYAMHWVRQAPGKGLEWVSGISWNSGSIGYADSVKGRFTISRDNAKNSLYLQMNSLRAEDTALYYCAKDIMGNWDYFYGMDVWGQGTTVTVSS VL: not shown [H4H10437P2, listing 2 of 2 here] | – | 20 RU | 0.229 nM | 0.00468 s⁻¹ | 2.04e+07 M⁻¹ s⁻¹ | 2 min | 30 RU | 0.134 nM | 0.00213 s⁻¹ | 1.58e+07 M⁻¹ s⁻¹ | 5 min | –
